Literature values as cited in patent US20050261189A1, “Methods of promoting cardiac cell proliferation” (Hydra Biosciences, Inc., priority 2004, published 2005).

B1: Wnt6: Wnt polypeptide (protein, UniProt Q9Y6F9 25-365, looked up)
Protein Wnt-6: LWWAVGSPLVMDPTSICRKARRLAGRQAELCQAEPEVVAELARGARLGVRECQFQFRFRRWNCSSHSKAFGRILQQDIRETAFVFAITAAGASHAVTQACSMGELLQCGCQAPRGRAPPRPSGLPGTPGPPGPAGSPEGSAAWEWGGCGDDVDFGDEKSRLFMDARHKRGRGDIRALVQLHNNEAGRLAVRSHTRTECKCHGLSGSCALRTCWQKLPPFREVGARLLERFHGASRVMGTNDGKALLPAVRTLKPPGRADLLYAADSPDFCAPNRRTGSPGTRGRACNSSAPDLSGCDLLCCGRGHRQESVQLEENCLCRFHWCCVVQCHRCRVRKELSLCL
B2: Wnt9a: Wnt polypeptide (protein, UniProt O14904 30-365, looked up)
Protein Wnt-9a: YFGLTGSEPLTILPLTLEPEAAAQAHYKACDRLKLERKQRRMCRRDPGVAETLVEAVSMSALECQFQFRFERWNCTLEGRYRASLLKRGFKETAFLYAISSAGLTHALAKACSAGRMERCTCDEAPDLENREAWQWGGCGDNLKYSSKFVKEFLGRRSSKDLRARVDFHNNLVGVKVIKAGVETTCKCHGVSGSCTVRTCWRQLAPFHEVGKHLKHKYETALKVGSTTNEAAGEAGAISPPRGRASGAGGSDPLPRTPELVHLDDSPSFCLAGRFSPGTAGRRCHREKNCESICCGRGHNTQSRVVTRPCQCQVRWCCYVECRQCTQREEVYTCKG
B3: Wnt16: Wnt polypeptide (protein, UniProt Q9UBV4 30-365, looked up)
Protein Wnt-16: NWMWLGIASFGVPEKLGCANLPLNSRQKELCKRKPYLLPSIREGARLGIQECGSQFRHERWNCMITAAATTAPMGASPLFGYELSSGTKETAFIYAVMAAGLVHSVTRSCSAGNMTECSCDTTLQNGGSASEGWHWGGCSDDVQYGMWFSRKFLDFPIGNTTGKENKVLLAMNLHNNEAGRQAVAKLMSVDCRCHGVSGSCAVKTCWKTMSSFEKIGHLLKDKYENSIQISDKTKRKMRRREKDQRKIPIHKDDLLYVNKSPNYCVEDKKLGIPGTQGRECNRTSEGADGCNLLCCGRGYNTHVVRHVERCECKFIWCCYVRCRRCESMTDVHTCK
B4: Wnt2: Wnt polypeptide (protein, UniProt P09544 26-360, looked up)
Protein Wnt-2: SWWYMRATGGSSRVMCDNVPGLVSSQRQLCHRHPDVMRAISQGVAEWTAECQHQFRQHRWNCNTLDRDHSLFGRVLLRSSRESAFVYAISSAGVVFAITRACSQGEVKSCSCDPKKMGSAKDSKGIFDWGGCSDNIDYGIKFARAFVDAKERKGKDARALMNLHNNRAGRKAVKRFLKQECKCHGVSGSCTLRTCWLAMADFRKTGDYLWRKYNGAIQVVMNQDGTGFTVANERFKKPTKNDLVYFENSPDYCIRDREAGSLGTAGRVCNLTSRGMDSCEVMCCGRGYDTSHVTRMTKCGCKFHWCCAVRCQDCLEALDVHTCKAPKNADWTTAT
B5: Wnt9b: Wnt polypeptide (protein, UniProt O14905 23-357, looked up)
Protein Wnt-9b: SYFGLTGREVLTPFPGLGTAAAPAQGGAHLKQCDLLKLSRRQKQLCRREPGLAETLRDAAHLGLLECQFQFRHERWNCSLEGRMGLLKRGFKETAFLYAVSSAALTHTLARACSAGRMERCTCDDSPGLESRQAWQWGVCGDNLKYSTKFLSNFLGSKRGNKDLRARADAHNTHVGIKAVKSGLRTTCKCHGVSGSCAVRTCWKQLSPFRETGQVLKLRYDSAVKVSSATNEALGRLELWAPARQGSLTKGLAPRSGDLVYMEDSPSFCRPSKYSPGTAGRVCSREASCSSLCCGRGYDTQSRLVAFSCHCQVQWCCYVECQQCVQEELVYTCKH
B6: Wnt3: Wnt polypeptide (protein, UniProt P56703 22-355, looked up)
Proto-oncogene Wnt-3: GYPIWWSLALGQQYTSLGSQPLLCGSIPGLVPKQLRFCRNYIEIMPSVAEGVKLGIQECQHQFRGRRWNCTTIDDSLAIFGPVLDKATRESAFVHAIASAGVAFAVTRSCAEGTSTICGCDSHHKGPPGEGWKWGGCSEDADFGVLVSREFADARENRPDARSAMNKHNNEAGRTTILDHMHLKCKCHGLSGSCEVKTCWWAQPDFRAIGDFLKDKYDSASEMVVEKHRESRGWVETLRAKYSLFKPPTERDLVYYENSPNFCEPNPETGSFGTRDRTCNVTSHGIDGCDLLCCGRGHNTRTEKRKEKCHCIFHWCCYVSCQECIRIYDVHTCK
B7: Wnt5b: Wnt polypeptide (protein, UniProt Q9H1J7 18-359, looked up)
Protein Wnt-5b: QLLTDANSWWSLALNPVQRPEMFIIGAQPVCSQLPGLSPGQRKLCQLYQEHMAYIGEGAKTGIKECQHQFRQRRWNCSTADNASVFGRVMQIGSRETAFTHAVSAAGVVNAISRACREGELSTCGCSRTARPKDLPRDWLWGGCGDNVEYGYRFAKEFVDAREREKNFAKGSEEQGRVLMNLQNNEAGRRAVYKMADVACKCHGVSGSCSLKTCWLQLAEFRKVGDRLKEKYDSAAAMRVTRKGRLELVNSRFTQPTPEDLVYVDPSPDYCLRNESTGSLGTQGRLCNKTSEGMDGCELMCCGRGYNQFKSVQVERCHCKFHWCCFVRCKKCTEIVDQYICK
B8: Wnt7a: Wnt polypeptide (protein, UniProt O00755 32-349, looked up)
Protein Wnt-7a: LGASIICNKIPGLAPRQRAICQSRPDAIIVIGEGSQMGLDECQFQFRNGRWNCSALGERTVFGKELKVGSREAAFTYAIIAAGVAHAITAACTQGNLSDCGCDKEKQGQYHRDEGWKWGGCSADIRYGIGFAKVFVDAREIKQNARTLMNLHNNEAGRKILEENMKLECKCHGVSGSCTTKTCWTTLPQFRELGYVLKDKYNEAVHVEPVRASRNKRPTFLKIKKPLSYRKPMDTDLVYIEKSPNYCEEDPVTGSVGTQGRACNKTAPQASGCDLMCCGRGYNTHQYARVWQCNCKFHWCCYVKCNTCSERTEMYTCK
B9: Wnt4: Wnt polypeptide (protein, UniProt P56705 23-351, looked up)
Protein Wnt-4: SNWLYLAKLSSVGSISEEETCEKLKGLIQRQVQMCKRNLEVMDSVRRGAQLAIEECQYQFRNRRWNCSTLDSLPVFGKVVTQGTREAAFVYAISSAGVAFAVTRACSSGELEKCGCDRTVHGVSPQGFQWSGCSDNIAYGVAFSQSFVDVRERSKGASSSRALMNLHNNEAGRKAILTHMRVECKCHGVSGSCEVKTCWRAVPPFRQVGHALKEKFDGATEVEPRRVGSSRALVPRNAQFKPHTDEDLVYLEPSPDFCEQDMRSGVLGTRGRTCNKTSKAIDGCELLCCGRGFHTAQVELAERCSCKFHWCCFVKCRQCQRLVELHTCR
B10: Wnt11: Wnt polypeptide (protein, UniProt O96014 25-354, looked up)
Protein Wnt-11: IKWLALSKTPSALALNQTQHCKQLEGLVSAQVQLCRSNLELMHTVVHAAREVMKACRRAFADMRWNCSSIELAPNYLLDLERGTRESAFVYALSAAAISHAIARACTSGDLPGCSCGPVPGEPPGPGNRWGGCADNLSYGLLMGAKFSDAPMKVKKTGSQANKLMRLHNSEVGRQALRASLEMKCKCHGVSGSCSIRTCWKGLQELQDVAADLKTRYLSATKVVHRPMGTRKHLVPKDLDIRPVKDSELVYLQSSPDFCMKNEKVGSHGTQDRQCNKTSNGSDSCDLMCCGRGYNPYTDRVVERCHCKYHWCCYVTCRRCERTVERYVCK
B11: Wnt8b: Wnt polypeptide (protein, UniProt Q93098 23-351, looked up)
Protein Wnt-8b: WSVNNFLMTGPKAYLIYSSSVAAGAQSGIEECKYQFAWDRWNCPERALQLSSHGGLRSANRETAFVHAISSAGVMYTLTRNCSLGDFDNCGCDDSRNGQLGGQGWLWGGCSDNVGFGEAISKQFVDALETGQDARAAMNLHNNEAGRKAVKGTMKRTCKCHGVSGSCTTQTCWLQLPEFREVGAHLKEKYHAALKVDLLQGAGNSAAGRGAIADTFRSISTRELVHLEDSPDYCLENKTLGLLGTEGRECLRRGRALGRWERRSCRRLCGDCGLAVEERRAETVSSCNCKFHWCCAVRCEQCRRRVTKYFCSRAERPRGGAAHKPGRKP
B12: Wnt1: Wnt polypeptide (protein, UniProt P04628 28-370, looked up)
Proto-oncogene Wnt-1: ANSSGRWWGIVNVASSTNLLTDSKSLQLVLEPSLQLLSRKQRRLIRQNPGILHSVSGGLQSAVRECKWQFRNRRWNCPTAPGPHLFGKIVNRGCRETAFIFAITSAGVTHSVARSCSEGSIESCTCDYRRRGPGGPDWHWGGCSDNIDFGRLFGREFVDSGEKGRDLRFLMNLHNNEAGRTTVFSEMRQECKCHGMSGSCTVRTCWMRLPTLRAVGDVLRDRFDGASRVLYGNRGSNRASRAELLRLEPEDPAHKPPSPHDLVYFEKSPNFCTYSGRLGTAGTAGRACNSSSPALDGCELLCCGRGHRTRTQRVTERCNCTFHWCCHVSCRNCTHTRVLHECL
B13: Wnt8a: Wnt polypeptide (protein, UniProt Q9H1J5 25-351, looked up)
Protein Wnt-8a: VNNFLITGPKAYLTYTTSVALGAQSGIEECKFQFAWERWNCPENALQLSTHNRLRSATRETSFIHAISSAGVMYIITKNCSMGDFENCGCDGSNNGKTGGHGWIWGGCSDNVEFGERISKLFVDSLEKGKDARALMNLHNNRAGRLAVRATMKRTCKCHGISGSCSIQTCWLQLAEFREMGDYLKAKYDQALKIEMDKRQLRAGNSAEGHWVPAEAFLPSAEAELIFLEESPDYCTCNSSLGIYGTEGRECLQNSHNTSRWERRSCGRLCTECGLQVEERKTEVISSCNCKFQWCCTVKCDQCRHVVSKYYCARSPGSAQSLGKGSA
B14: Wnt7b: Wnt polypeptide (protein, UniProt P56706 25-349, looked up)
Protein Wnt-7b: ALSSVVALGANIICNKIPGLAPRQRAICQSRPDAIIVIGEGAQMGINECQYQFRFGRWNCSALGEKTVFGQELRVGSREAAFTYAITAAGVAHAVTAACSQGNLSNCGCDREKQGYYNQAEGWKWGGCSADVRYGIDFSRRFVDAREIKKNARRLMNLHNNEAGRKVLEDRMQLECKCHGVSGSCTTKTCWTTLPKFREVGHLLKEKYNAAVQVEVVRASRLRQPTFLRIKQLRSYQKPMETDLVYIEKSPNYCEEDAATGSVGTQGRLCNRTSPGADGCDTMCCGRGYNTHQYTKVWQCNCKFHWCCFVKCNTCSERTEVFTCK

System: one or more non-cardiac cells types
Conditions: cited from earlier work

Question: Which “Wnt signaling pathway shown in one or more non-cardiac cell types” value does the source give for Wnt10b: Wnt polypeptide here?
Answer: signal via the canonical pathway

Question: For B1, which “Wnt signaling pathway shown in one or more non-cardiac cell types” value is on record?
Answer: signal via the canonical pathway

Question: For B2, which “Wnt signaling pathway shown in one or more non-cardiac cell types” value is on record?
Answer: signal via the canonical pathway

Question: Which “Wnt signaling pathway shown in one or more non-cardiac cell types” value does the source give for B3 here?
Answer: signal via the canonical pathway

Question: For B4, which “Wnt signaling pathway shown in one or more non-cardiac cell types” value is on record?
Answer: signal via the canonical pathway

Question: With B5 as the molecule, how does the “Wnt signaling pathway shown in one or more non-cardiac cell types” value read?
Answer: signal via the canonical pathway

Question: With B6 as the molecule, how does the “Wnt signaling pathway shown in one or more non-cardiac cell types” value read?
Answer: signal via the canonical pathway

Question: Which “Wnt signaling pathway shown in one or more non-cardiac cell types” value does the source give for B7 here?
Answer: signal via the non-canonical signaling pathway

Question: With B8 as the molecule, how does the “Wnt signaling pathway shown in one or more non-cardiac cell types” value read?
Answer: signal via the canonical pathway

Question: Which “Wnt signaling pathway shown in one or more non-cardiac cell types” value does the source give for B9 here?
Answer: signal via the non-canonical signaling pathway

Question: With B10 as the molecule, how does the “Wnt signaling pathway shown in one or more non-cardiac cell types” value read?
Answer: signal via the non-canonical signaling pathway

Question: For B11, which “Wnt signaling pathway shown in one or more non-cardiac cell types” value is on record?
Answer: signal via the canonical pathway

Question: With B12 as the molecule, how does the “Wnt signaling pathway shown in one or more non-cardiac cell types” value read?
Answer: signal via the canonical pathway

Question: Which “Wnt signaling pathway shown in one or more non-cardiac cell types” value does the source give for B13 here?
Answer: signal via the canonical pathway

Question: With B14 as the molecule, how does the “Wnt signaling pathway shown in one or more non-cardiac cell types” value read?
Answer: signal via the non-canonical signaling pathway
